Reference: publication PMC6651876, “PEA-15 C-Terminal Tail Allosterically Modulates Death-Effector Domain Conformation and Facilitates Protein–Protein Interactions” (International Journal of Molecular Sciences, 2019)

Target: T1, PEA-15 S104D/S116D double mutant (PEA-15DD) (UniProt Q15121 1-130, S104D | S116D)
T1 construct: PEA-15 (phosphoprotein enriched in astrocytes, 15 kDa), full length, with the phosphomimetic mutations S104D and S116D; Made by site-directed mutagenesis of the PEA-15 plasmid (pET-28b); expressed and purified as the wild type
T1 sequence (Q15121 whole entry S104D/S116D): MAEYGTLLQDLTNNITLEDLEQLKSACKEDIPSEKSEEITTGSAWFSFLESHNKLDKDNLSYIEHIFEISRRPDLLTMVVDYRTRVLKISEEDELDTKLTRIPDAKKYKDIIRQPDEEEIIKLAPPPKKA
Assay: NMR titration; data not shown: spectra of uniformly labeled PEA-15DD with unlabeled FADD at molar ratios 1:0.5, 1:1 and 1:2; 20 mM sodium phosphate pH 7.0, 150 mM NaCl, 1 mM DTT
Details: both partners purified

B1: Fas-associated death domain (FADD) protein, full length (natural protein, UniProt Q13158 1-208, looked up)
chain: MDPFLVLLHSVSSSLSSSELTELKFLCLGRVGKRKLERVQSGLDLFSMLLEQNDLEPGHTELLRELLASLRRHDLLRRVDDFEAGAAAGAAPGEEDLCAAFNVICDNVGKDWRRLARQLKVSDTKIDSIEDRYPRNLTERVRESLRIWKNTEKENATVAHLVGALRSCQMNLVADLVQEVQQARDLQNRSGAMSPMSWNSDASTSEAS
notes: FADD (Fas-associated death domain protein), full length; Cloned into pET-28b between NdeI and BamHI
stoichiometry N: 1
